Laboratory results taken from paper PMC8473560, “Molecular basis of C-S bond cleavage in the glycyl radical enzyme isethionate sulfite-lyase” (Cell Chemical Biology, 2021).

Key:
[1] = target: T1, IslA (isethionate sulfite-lyase) (Bilophila wadsworthia, UniProt E5Y378); experiment: X-ray crystal structure, […] Å; format: binding; conditions: unactivated enzyme, aerobic, 30 mM sodium isethionate, pH 7.5, 22 °C; active site
T1 construct: full length, 830 residues, N-terminal His-tag kept (pET-28a), expressed in E. coli BL21(DE3); homodimer

[2] = system: O=S(=O)(O)CCO; experiment: purified protein; conditions: IslA activated by IslB and S-adenosylmethionine, anoxic, 30 °C, isethionate 1-50 mM, kcat not normalized to glycyl radical content
[3] = system: O=S(=O)(O)CCO; experiment: purified protein; format: biochemical, Bilophila wadsworthia; conditions: IslA activated by IslB and S-adenosylmethionine, anoxic, 30 °C, isethionate 1-50 mM, kcat not normalized to glycyl radical content
[4] = target: the molecule itself; experiment: crystal structure; hanging drop vapor diffusion at 22°C, aerobic; unactivated IslA with intact N-terminal His-tag, 7.5 mg/mL in 50 mM HEPES pH 7.5, 50 mM NaCl; glycerol-bound (2.26 Å, P21212) and isethionate-bound (2.70 Å, P212121) crystal forms

| Molecule | Km [3] | kcat [3] | also measured |
| --- | --- | --- | --- |
| O=S(=O)(O)CCO [isethionate, 2-hydroxyethanesulfonate] | – | – | X-ray crystal structure, 2.70 Å [1]: a second IslA structure with the substrate Ise bound was obtained |
| IslA (isethionate sulfite-lyase) (Bilophila wadsworthia 3_1_6) | – | – | Km [2]: 8 ± 2 mM |
| IslA (isethionate sulfite-lyase) (Bilophila wadsworthia 3_1_6; F682A) | 6.8 ± 0.6 mM | 0.0171 ± 0.0004 s⁻¹ | – |
| IslA (isethionate sulfite-lyase) (Bilophila wadsworthia 3_1_6; F682Y) | 8 ± 1 mM | 0.0074 ± 0.0003 s⁻¹ | – |
| IslA (isethionate sulfite-lyase) (Bilophila wadsworthia 3_1_6; I192A) | 12 ± 2 mM | 0.4 ± 0.02 s⁻¹ | – |
| IslA (isethionate sulfite-lyase) (Bilophila wadsworthia 3_1_6; W374F) | 11 ± 1 mM | 0.063 ± 0.003 s⁻¹ | – |
| IslA (isethionate sulfite-lyase) (Bilophila wadsworthia 3_1_6; W374Y) | 16.0 ± 0.9 mM | 0.14 ± 0.003 s⁻¹ | – |
| isethionate sulfite-lyase (IslA) from Bilophila wadsworthia 3.1.6 (enzyme, Isethionate sulfite-lyase IslA, Bilophila wadsworthia 3.1.6, wild type; expressed from pET-28a-IslA (Peck et al., 2019); It calls the structure native/wild-type and gives '6-830 (of 830 residues)', so the whole protein is likely, but the words 'full length' are not used; also called IsIA; wild-type IslA; source: E. coli BL21(DE3), purified (Ni-NTA, dialysis); not shown: His-tag, N-terminal, kept) MTQVAEIKSPHEQRLEDNIAGKEDIYRESHKRVFKLLERFDGQKPAIDVERALYFTQSMAETVGQPLVLRWAKALMNVAKNITVMVQDDQLLLGRCGGHDGRYGILYPELDGDFLDIAVRDLPTRPQSPASISPEDAKIVVEQIAPFWKGRTYHEALNKALPAEVHKLTYDDPDGLISRFIVNETSSFRSSIQWVHDYEVVLKRGFNGLKQEMEEKLAALDPASPVDQVDKRPFIEATILVCDAIVLWAKRHADAARKAAEACADPVRKAELIRMAENAEHVPANPARDFYEAVQSQYFTQMFSRLEQKTGTTISNGRMDQYFYPFYKKDMEAGILTDEKTLEYLECMWVGMAEFIDMYISPAGGAFNEGYAHWEAVTIGGQTPDGRDATNDLTYLFLKSKREFPLHYPDLAARIHSRAPERYLWDVAETIKFGSGFPKLCNDEECIPLYVSKGATFEEALDYAVSGCIEIRMPNRDTYTSGGAYTNFASAVEMALYDGKMKKYGDVQLGIQTGDARKFKSWDEFWNAYVQQHMLLLRTTFIQQYIVIQTRAKHFAQPMGSVLHALCRKHCIDLHQPQIPEGLNFGYFEFMGLGTVIDSLAAIKKLVFEDKKLTMDQLIDALEANFEGYEDIQQLLRTAPCYGNDDEYADEIGRELDRMAVSFAAKYGKEMGINNDARYVPFTSHVPFGKVVSATPNGRVAWFPLADGSSPSHGADHNGPTAILLSNHNTKNYGMRARAARLINVKFTPKCVEGDAGTEKLVQFIRTWCDLKLWHIQFNVINADTLKKAQKDPQKYRNLIVRIAGYSAYFVDLTPDLQNDLIARTGHDQM | – | – | stoichiometry N [4]: 2 |
